Laboratory results published in patent US20060110492A1, “Preparation and food product comprising an active phytase” (priority 2003, published 2006).

Legend:
[1] = Fe retained in sedimented fraction of suspended salt (AES/ICP); format: physicochemical
Procedure: The prepared FePA as described in Example 3 was suspended either at pH 2 or at pH 5,5 in a concentration of 35.8 g per liter. After sedimentation, the supernatant fraction of both suspensions was analysed by AES/ICP.
Subsequently, the suspension of pH=2 was centrifuged 10 minutes at 6000 rpm at room temperature. The pellet was dissolved in 15 g concentrated […] and the solution was analyzed by AES/ICP.
This procedure was repeated with iron phosphate. This salt was prepared in the same way as the preparation of the essential cation phytates: the cation was dissolved as its sulfate, and subsequently precipitated with a basic solution of sodium phosphate. The precipitate was collected and washed.

[2] = Mineral partitioning in ground Cruesli with added FePA and/or phytase (AES-ICP); format: biochemical; settings: phytase 115 FTU/g
Procedure: 0.1 g of this preparation was added to 20 g ground Cruesli™ (Quaker Foods & Beverages). […] […] The suspension was incubated at 37° C. with constant stirring for 4 h, and subsequently centrifuged for 20 minutes at 16000 rpm and 4° C. After centrifugation, the sediment and the supernatant fraction were separated, weighed and analyzed by AES-ICP to determine their phosphorus, calcium, magnesium, zinc and iron content. Control suspensions without phytase activity (but with the FePA), and without both FePA and phytase underwent the same procedure.

[3] = Mineral partitioning in ground Cruesli fractions with added phytase activity (AES-ICP); format: biochemical
Procedure: Various phytase preparations are commercially available. We have used the liquid formulation NATUPHOS™ 5000 L (DSM, Delft, The Netherlands). Again we used ground Cruesli™ (Quaker Foods & Beverages) as model phytate-containing foodstuff. About 20 grams ground Cruesli™ was suspended in two separate lots of 40 g acetate buffer (0.25 M, pH 5.5, 37° C.). To one of the lots, 1.2 g of the phytase preparation was added, to achieve a final activity of 100 FTU/g. The suspensions were incubated at 37° C. with constant stirring for 1,5 h, and subsequently centrifuged for 20 minutes at 16000 rpm and 4° C. After centrifugation the sediment and the supernatant fraction were separated, weighed and analyzed by AES-ICP to determine their phosphorus, calcium, magnesium and zinc content.
The procedure for this example was the same as for Example 6, but a lower final phytase activity in the incubation was used: 1 FTU/g, instead of 100. The incubation time was lowered to 1 hour.
The procedure for this example was the same as for Example 7, but at a lower pH value and a longer incubation time. This was done to simulate the conditions existant in the stomach. We looked specifically at iron, because iron salts are believed to be particularly poorly soluble at higher pH values, making breakdown in the stomach an attractive option. Iron concentrations were determined by AES-ICP.

[4] = characteristic stomach pH-values; cited from earlier work
[5] = Phytase activity on different substrates (method of Engelen et al.); format: biochemical; settings: 37° C.; for Activity: incubation 60 minutes
Procedure: The activity of Aspergillus niger phytase (NATUPHOS™) was tested against NaPA and CaPA. The influence of the metal in the phytate source on the phytase activity (37° C. using an incubation time of 60 minutes) was investigated. The rate of phytate hydrolysis was determined using the analytical method described by Engelen et al., J. AOAC Int. 77:760-764 (1994).

[6] = incubation pH 2, 37° C., 4 h, where added: Fe-phytate 450 mg/kg
[7] = incubation pH <1, where added: Fe-phytate 450 mg/kg
[8] = pH 2, 37° C., 2 h, phytase 1 FTU/g
[9] = pH 5.5, 37° C., 1 h, phytase 1 FTU/g
[10] = pH 5.5, 37° C., 1.5 h, phytase 100 FTU/g
[11] = incubation pH 5.5, where added: Fe-phytate 450 mg/kg

For Iron-phytate [Fe-phytate], the “Fe retained in the sedimented fraction” value ([1]; suspended at pH 2) was “more than 90%”, the “Fe retained in the sedimented fraction” value ([1]; suspended at pH 5.5) was “more than 90%” and the “Percentage of mineral in supernatant fraction, Iron” value [2, 6] was 10%. The “Percentage of mineral in supernatant fraction, Phosphorus” value [2, 6] was 9.6%, the “Percentage of mineral in supernatant fraction, Iron” value [2, 7] was 23% and the “Percentage of mineral in supernatant fraction, Phosphorus” value [2, 7] was 68%.

For iron phosphate [reference compound], the “Fe retained in the sedimented fraction” value ([1]; suspended at pH 2) was “less than 10%” and the “Fe retained in the sedimented fraction” value ([1]; suspended at pH 5.5) was “more than 90%”.

B1: phytase: Phytase from A. niger commercialized under the trade name NATUPHOS; liquid (5000 L) and granulated (5000 G) formulations, 5000 FTU/g (protein, UniProt P34752 24-467, looked up)
Phytase A: ASRNQSSCDTVDQGYQCFSETSHLWGQYAPFFSLANESVISPEVPAGCRVTFAQVLSRHGARYPTDSKGKKYSALIEEIQQNATTFDGKYAFLKTYNYSLGADDLTPFGEQELVNSGIKFYQRYESLTRNIVPFIRSSGSSRVIASGKKFIEGFQSTKLKDPRAQPGQSSPKIDVVISEASSSNNTLDPGTCTVFEDSELADTVEANFTATFVPSIRQRLENDLSGVTLTDTEVTYLMDMCSFDTISTSTVDTKLSPFCDLFTHDEWINYDYLQSLKKYYGHGAGNPLGPTQGVGYANELIARLTHSPVHDDTSSNHTLDSSPATFPLNSTLYADFSHDNGIISILFALGLYNGTKPLSTTTVENITQTDGFSSAWTVPFASRLYVEMMQCQAEQEPLVRVLVNDRVVPLHGCPVDALGRCTRDSFVRGLSFARSGGDWAECFA
With B1 the “% of mineral in supernatant fraction, Iron” value [3, 8] was 14%, the “% of mineral in supernatant fraction, Phosphorus” value [3, 8] was 33% and the “% of mineral in supernatant fraction, Calcium” value [3, 9] was 30%. The “% of mineral in supernatant fraction, Magnesium” value [3, 9] was 36%, the “% of mineral in supernatant fraction, Phosphorus” value [3, 9] was 30% and the “% of mineral in supernatant fraction, Zinc” value [3, 9] was 22%. For the same molecule, the “% of mineral in supernatant fraction, Calcium” value [3, 10] was 40%, the “% of mineral in supernatant fraction, Magnesium” value [3, 10] was 49% and the “% of mineral in supernatant fraction, Phosphorus” value [3, 10] was 42%. For the same molecule, the “% of mineral in supernatant fraction, Zinc” value [3, 10] was 19%, the “residual activity, % of optimal activity” value [4] was “about 50%” and the “activity of phytase on sodium and on calcium phytate compared” value ([5]; 60 minutes) was “equivalent”. The Activity ([5]; substrate 4.6 mM calcium phytate) was 3.12 * 10^5 FTU/g, the Activity ([5]; substrate 5.1 mM calcium phytate) was 3.07 * 10^5 FTU/g and the Activity ([5]; substrate 5.1 mM sodium phytate) was 3.06 * 10^5 FTU/g. The Activity ([5]; substrate 5.6 mM calcium phytate) was 3.10 * 10^5 FTU/g, the “Percentage of mineral in supernatant fraction, Iron” value [2, 11] was 6% and the “Percentage of mineral in supernatant fraction, Phosphorus” value [2, 11] was 45%.
